The data set is described as follows: yeast display, Sf9 membrane polyspecificity reagent, FACS + sequencing; frameworks hold sequencing errors. The procedure, abridged: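 Genes from sorted yeast were amplified by colony PCR, read by MiSeq 2 × 250 sequencing and filtered on CDR length. These cells carried a synthetic nanobody library in Saccharomyces cerevisiae BJ5465 and were sorted by FACS into low and high (top ~1%) gates on anti-HA and streptavidin fluorescence. Polyreactivity is labelled according to the gate of origin.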
For “QVQLVESGGGLVQAGGSLRLSCAASGNIFFTYAMGWYRQAPGKERELVAAITSGGRTYYADSVKGRFTISRENPKNTFYLQMNSLKPEDTAVYYCASYYKYLGYGYWGQGTQVTVSS”, the “polyreactivity (PSR sort gate)” value is listed as “high polyreactivity”.
Then “QVQLGESGGGLVQAGGSLRLSCAASGSIFRYYVMGWYRQAPGKERELVATISRDSSRNYADSVKGRFTISRDNAKNTVYLQMNSLKPEDTAVYYCNTEGGVIRSYWYDYWGQGTQVTVSS”, with “low polyreactivity”; and “QVQLVESGGGLVQAGGSLRLSCAASGSIFPVYAMGWYRQAPGKERELVAAINSSGGSTYYADSVKWRFTISRDNAKNTVYLQMNSLKPEDTAVYYCAAEISTASYYAKTYDYWGQGTQVSVSS”, with “low polyreactivity”; and “QVQLVESGGGLVQAGGSLRLSCAASGSTFRYYAMGWYRQAPGKERELVAAISSSGGSTYYADSVKGRFTISRDNAKNTVYLQMNSLKPEDTAVYYCAARHYSYRVEYDYWGQGTQVTVSS”, with “high polyreactivity”.
Then “QVQLEESGGGLVQAGGSLRLSCAASGLTFVRYAMGWYRQAPGKERELVAAISSGGSTNYADSVKGRVTISRDNAKNTVYLQMNSLKPEDTAVYYCAARPPRTYWRYQSDYWGQGTQVTVSS”, with “high polyreactivity”.
Then “QVQLVESGGGLVQAGGSLRLSCAASGRIFGRNARGWYRQAPGKEREFVAAISGNGGSTYYADSVKGRFTISRDNAKNTVYLQMNSLKPEDTAVYYCATKYFSRMDYWGQGTQVTVSS”, with “high polyreactivity”; and “QVQLVESGGGLVQAGGSLRLSCAASGFTVGYAMGWYRQAPGKERELVAAITRGGGTRTSYADSVKGRFTISRDNAKNTVYLQMNSLKPEDTAVYYCAARRWWSPRTQYDYWGQGTQVTVSS”, with “high polyreactivity”; and “QVQLVESGGGLVQAGGSLRLSCAASGSNFVVNAMGWYRQAPGKERELVAAITQSGGSTFYADSVKGRFTISRDNAKNTVYLLMNSLKPEDSAVYYWGQGTQVTVSS”, with “low polyreactivity”.
Regarding “QVQLVESGGGLVQAGGSLRLSCAASGGTFTDYAMGWYRQAPGKERELVAAISSVGSTNYADSVKGRFTISRDNAKNTVYLQMNSLKPEDTAVYYCAVDYGRAVQGDSITYDFNYWGQGTQVTVSS”, the “polyreactivity (PSR sort gate)” value is “low polyreactivity”.
For “QVQLVESGGGLVQAGGSLRLSCAASGRIFGQNAMGWYRQAPGKERELVADITGSGGRTYYADSVKGRFTISRDNAKNTVYFQMNSLKPEDTAVYYCAVRVTSYYRTMVYWGQVTQVTVSS” the value was “low polyreactivity”; for “QVQLVESGGGLVQAGGSLRLSCAASGSIFFYYAMGWYRQAPGKERELVAAITKIGVGTFYADSVKGRFTISRDNAKNTVYLQMNSLKPEDTAVYYCNARTAWEGYDYWGQGTQVTVSS”, “low polyreactivity”.
On to “QVQLVESGGGLVQAGGSLRLSCAASGSISRYYAMGWYRQAPRKERELVAAISSNGGSTYYADSVKGRFTISRDNAKNSVYLQMYSLKPEDTAVYYCNAFYVGYIRYWTNKLVDYWGQGTQVTVSS”, for which the “polyreactivity (PSR sort gate)” value is recorded as “high polyreactivity”.
Then “QVQLVESGGGLVQAGGSLRLSCAASGFIFQPYVMGWYRQAPGKERELVAAISWNGVSTYYADSVKGRFTISRDNAKNTVYLQMNSLKPEDTAVYYCAASYRYVPGLNYWGQGTQVTVSS”, with “low polyreactivity”.
Then “QVQLVESGGGLVQAGGSLRLSCAASGSTFAGNAMGWYRQAPGKERELVAAISSSGAGTYYADSVKGRFTISRDNAKNTVYLQMNSLKPEDTAVYYCNVGSRALRRRVRSVSFDYWGQGTQVTVSS”, with “low polyreactivity”.
On to “QVQLVESGGGLVQAGGRLRLSCAASGRIFGRYAMGWYRQAPGKERELVAAITWTGGTTYYADSVKGRFTISRDNAKNTVYLQMNSLKPEDTAVYYCAARQGYGIYGDYYYWGQGTQVTVSS”, for which the “polyreactivity (PSR sort gate)” value is “high polyreactivity”.
For “QVQLVESGVGIVQAGGSLRLSCAASGITFWRYAMRWYRQARGKERELVAAINSGGGTKYADSVQGRFTISRDNAKNTDYLQMNSLKPEDTAVYYCAAVSRYGWYDYCGQGTQVTVSS” the value was “high polyreactivity”; for “KVQLVESGAGLVQAGGSLRLTCAASGFTFAYYAMGWYRPAPGKERELVAAISWSGGITYYADSVKGRFTISRDNAKNTVYLQMNSLKPEDTAVDYCAAETFRGSYYDEDYDYWGQGTQVTVSS”, “low polyreactivity”; for “QVQLVESGGGLVQAGGSLRLSCAASGSTFVWYGMGWYRQQPGNQREFVAAIYTSGGRTYYADSVKGRFTISRDNAKITVYLQMNSLKPEDTALYYCDTRPYFTYRWYDYWGQGTQVTVSS”, “high polyreactivity”.
For “QVQLVESGGGLVQAGGSLRLSCAASGIFDRYAMGWYRQAPGKERELVAAISYNAGSTYYADSVKGRFTISRDNAKNTVYLQMNSLKPEDTAVYYCAARGFGTVNGKLYGYWGQGTQVTVSS” the value was “high polyreactivity”.
For “QVQLVESGGGLVQAGGSLRLSCAASGSNYTYYAMGWYRQAPGKERQLVAAIRSSGSTYYADSVKGRFTISRDNAKNTVYLQMNSLKPEDTAVYYCAAKARRLNASSYDYWGQGTQVTVSS” the value was “high polyreactivity”; for “QVQLVESGGGLVQAGGSLRLSCAASGRTFFRYAMGWYRQAPGKERELVADISKGGGSTYYADSVKGRFTISRDNAKNTVYLQMNSLKPEDTAVYYCAADQYYERDNFGAERYYWGQGTQVTVSS”, “high polyreactivity”.
In the case of “QVQLVESGGGLVQAGGSLRLICAASGFIFSRYTMGWYRQAPGKERELVAAISKRGGSTYYADSVKGRFTISRDNAKNTVYLQMNSLKPEDTAVYYCAADRLPSGSLVEYWGQGTQVTVSS”, the “polyreactivity (PSR sort gate)” value was “high polyreactivity”.
Then “QLQLVESGGGLVQAGGRLRLSCAASGFIFWSYAMGWYRQAPGKERELVAAISARGGSTYYADSVKGRFTISRDNSKNTVYLQMNSLKPEDTAVYYCAAPRASGYYWGKGTQVTVSS”, with “high polyreactivity”; and “QVQLVESGGGLVQAGGSLRLSCAAYGNTFYRNAMGWYRQAPGKERELVAAITFSTGRTYYADSVKGRFTISRDNAKNTVYLQLNSLKPEDTAVYYCAAFYRGGDYWGQGTQVTVSS”, with “high polyreactivity”; and “QVQLVESGGGLVQAGGSLRLSCAASGFTFRDYAMGWYRQAPGKERELVAAISRSGDSTYYADSVKGRFTISRDNAKNTVYLQMNSLKPEDTAVYYYAAKRRYTTYDYWGQGTQVTVSS”, with “high polyreactivity”.
For “QVQLVESGGGLVQAGGRLRLSCAASGSIFNANAMGWYRHAPGKEREMVAGIRSGSSTNYADSVKGRFTISRDNAKNTVYLQMNSLKPEDTAVYYCATEGYWVYGFDDEYWGQGTQVTVSS” the value was “low polyreactivity”; for “QVQLVESGGGLVQAGGRLRLSCAASGFIFGAYAMGWYRQAPGKERELVAAINWSGGSTYYADSVKGRFTISRDNAKNTVYLQMNSLKPEDTAVYYCNARYNGFYAYPRHDYWGQGTQVTVSS”, “low polyreactivity”; for “QVQLVESGGGLVQAGVSLRLSCAASGKTVYSYAMGWYRQAPGKKRQLVAGISYIGGRTYYADSVKGRFTISRDNAKNTFYLQMNSLNPEDTAFYYCAAVYWYGRRKYYSWGQGTQVTVSS”, “high polyreactivity”.
For “QVQLVESGGGLVQAGGSLRLSCAASGRTFYSYAMGWYRQAPGKERELVAAISYTGASTFYADSVKGRFTISRDKSKNTVYLQMNSLKPEDTAVYYCADRKVRFGVDYWGQGTQVTVSS” the value was “high polyreactivity”; for “QVQLVESGGGLVQAGGSLRLSCAASGRIFGPNAMGWYRQAPGKERELVAAISTSGGRTYYADSVKGRFTISRDNAKNTVYLQMNSLKPEDTAVYYCAADRSRWGQGTQVTVSS”, “high polyreactivity”.

For the origin of these results see the nanobody polyreactivity screen of Harvey et al. (2022).
